For series [1], the system named is HeLa Kyoto. The experiment in a line: solubility in G1/S (NP-40 vs SDS abundance) (log2 ratio); higher = more soluble. The note with it: cell cycle stage: G1/S.
Series [2] has as its system HeLa Kyoto. The series is described as follows: melting temperature (median over replicates), in situ; higher = more thermally stable.
Series [3] deals with HeLa Kyoto. The experiment in a line: solubility change mitosis vs G1/S (difference of NP-40 vs SDS log2 ratios) (log2 ratio difference); higher = more soluble in mitosis.
Series [4] has as its system HeLa Kyoto. The series is described as follows: thermal stability score vs G1/S (z-score of summed log2 fold changes over temperatures); higher = more thermally stable than in G1/S.
Where [5] appears, read: cell cycle stage: early G1 (4.5 h after nocodazole release).
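Wherever melting temperature (median over replicates), in situ is given: HeLa Kyoto cells synchronized by double thymidine or nocodazole block, proteins quantified by TMT10plex mass spectrometry, three independent biological replicates.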
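Wherever solubility change mitosis vs G1/S (difference of NP-40 vs SDS log2 ratios) is given: synchronized HeLa Kyoto cells (double thymidine block for G1/S, nocodazole release for mitosis), protein amounts in NP-40 versus SDS lysates quantified by mass spectrometry, three biological replicates.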
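Wherever solubility in G1/S (NP-40 vs SDS abundance) is given: HeLa Kyoto cells arrested at G1/S by double thymidine block, proteins quantified by TMT10plex mass spectrometry in mild NP-40 versus SDS extracts, three biological replicates.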
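Wherever thermal stability score vs G1/S (z-score of summed log2 fold changes over temperatures) is given: synchronized HeLa Kyoto cells, proteins quantified by TMT10plex mass spectrometry, three biological replicates, mitosis taken 0.5 h after nocodazole release, G1/S directly after double thymidine block.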

With “MDGSGPFSCPICLEPLREPVTLPCGHNFCLACLGALWPHRGASGAGGPGGAARCPLCQEPFPDGLQLRKNHTLSELLQLRQGSGPGSGPGPAPALAPEPSAPSALPSVPEPSAPCAPEPWPAGEEPVRCDACPEGAALPAALSCLSCLASFCPAHLGPHERSPALRGHRLVPPLRRLEESLCPRHLRPLERYCRAERVCLCEACAAQEHRGHELVPLEQERALQEAEQSKVLSAVEDRMDELGAGIAQSRRTVALIKSAAVAERERVSRLFADAAAALQGFQTQVLGFIEEGEAAMLGRSQGDLRRQEEQRSRLSRARQNLSQVPEADSVSFLQELLALRLALEDGCGPGPGPPRELSFTKSSQAVRAVRDMLAVACVNQWEQLRGPGGNEDGPQKLDSEADAEPQDLESTNLLESEAPRDYFLKFAYIVDLDSDTADKFLQLFGTKGVKRVLCPINYPLSPTRFTHCEQVLGEGALDRGTYYWEVEIIEGWVSMGVMAEDFSPQEPYDRGRLGRNAHSCCLQWNGRSFSVWFHGLEAPLPHPFSPTVGVCLEYADRALAFYAVRDGKMSLLRRLKASRPRRGGIPASPIDPFQSRLDSHFAGLFTHRLKPAFFLESVDAHLQIGPLKKSCISVLKRR [TRIM47]”, the “solubility in G1/S (log2)” value in the series with HeLa Kyoto [1] was found to be 0.0943. Moreover, the values for the melting temperature with HeLa Kyoto [2] (cell cycle stage: G1/S) and in the series with HeLa Kyoto [2] (cell cycle stage: mitosis) were 47.8 °C and 46.7 °C, respectively. Also, the “solubility change mitosis (log2)” value in the series with HeLa Kyoto [3] is -0.052. Besides, the figures for the thermal stability score in the series on HeLa Kyoto [4] (setting [5]) and with HeLa Kyoto [4] (cell cycle stage: mitosis) were 0.521 and 1.84, respectively.
For “MDIRKFFGVIPSGKKLVSETVKKNEKTKSDEETLKAKKGIKEIKVNSSRKEDDFKQKQPSKKKRIIYDSDSESEETLQVKNAKKPPEKLPVSSKPGKISRQDPVTYISETDEEDDFMCKKAASKSKENGRSTNSHLGTSNMKKNEENTKTKNKPLSPIKLTPTSVLDYFGTGSVQRSNKKMVASKRKELSQNTDESGLNDEAIAKQLQLDEDAELERQLHEDEEFARTLAMLDEEPKTKKARKDTEAGETFSSVQANLSKAEKHKYPHKVKTAQVSDERKSYSPRKQSKYESSKESQQHSKSSADKIGEVSSPKASSKLAIMKRKEESSYKEIEPVASKRKENAIKLKGETKTPKKTKSSPAKKESVSPEDSEKKRTNYQAYRSYLNREGPKALGSKEIPKGAENCLEGLIFVITGVLESIERDEAKSLIERYGGKVTGNVSKKTNYLVMGRDSGQSKSDKAAALGTKIIDEDGLLNLIRTMPGKKSKYEIAVETEMKKESKLERTPQKNVQGKRKISPSKKESESKKSRPTSKRDSLAKTIKKETDVFWKSLDFKEQVAEETSGDSKARNLADDSSENKVENLLWVDKYKPTSLKTIIGQQGDQSCANKLLRWLRNWQKSSSEDKKHAAKFGKFSGKDDGSSFKAALLSGPPGVGKTTTASLVCQELGYSYVELNASDTRSKSSLKAIVAESLNNTSIKGFYSNGAASSVSTKHALIMDEVDGMAGNEDRGGIQELIGLIKHTKIPIICMCNDRNHPKIRSLVHYCFDLRFQRPRVEQIKGAMMSIAFKEGLKIPPPAMNEIILGANQDIRQVLHNLSMWCARSKALTYDQAKADSHRAKKDIKMGPFDVARKVFAAGEETAHMSLVDKSDLFFHDYSIAPLFVQENYIHVKPVAAGGDMKKHLMLLSRAADSICDGDLVDSQIRSKQNWSLLPAQAIYASVLPGELMRGYMTQFPTFPSWLGKHSSTGKHDRIVQDLALHMSLRTYSSKRTVNMDYLSLLRDALVQPLTSQGVDGVQDVVALMDTYYLMKEDFENIMEISSWGGKPSPFSKLDPKVKAAFTRAYNKEAHLTPYSLQAIKASRHSTSPSLDSEYNEELNEDDSQSDEKDQDAIETDAMIKKKTKSSKPSKPEKDKEPRKGKGKSSKK [RFC1]”, in the series with HeLa Kyoto [1], the “solubility in G1/S (log2)” value was -0.641. In addition, the values for the melting temperature in the series on HeLa Kyoto [2] (cell cycle stage: G1/S) and in the series with HeLa Kyoto [2] (cell cycle stage: mitosis) were 47.2 °C and 49.5 °C, respectively. Besides, in the series with HeLa Kyoto [3], the “solubility change mitosis (log2)” value was 0.447. Moreover, the thermal stability score came to 3.61 with HeLa Kyoto [4] (setting [5]) and 4.94 in the series on HeLa Kyoto [4] (cell cycle stage: mitosis).
Turning to “MDIRPNHTIYINNMNDKIKKEELKRSLYALFSQFGHVVDIVALKTMKMRGQAFVIFKELGSSTNALRQLQGFPFYGKPMRIQYAKTDSDIISKMRGTFADKEKKKEKKKAKTVEQTATTTNKKPGQGTPNSANTQGNSTPNPQVPDYPPNYILFLNNLPEETNEMMLSMLFNQFPGFKEVRLVPGRHDIAFVEFENDGQAGAARDALQGFKITPSHAMKITYAKK [SNRPB2]”, the “solubility in G1/S (log2)” value with HeLa Kyoto [1] worked out at 0.221. Besides, the figures for the melting temperature in the series with HeLa Kyoto [2] (cell cycle stage: G1/S) and with HeLa Kyoto [2] (cell cycle stage: mitosis) were 54.2 °C and 53.2 °C, respectively. In the series with HeLa Kyoto [3], the “solubility change mitosis (log2)” value amounted to 0.472. Further, the thermal stability score is -2.85 in the series on HeLa Kyoto [4] (setting [5]) and -4.3 with HeLa Kyoto [4] (cell cycle stage: mitosis).
As for “MDIYDTQTLGVVVFGGFMVVSAIGIFLVSTFSMKETSYEEALANQRKEMAKTHHQKVEKKKKEKTVEKKGKTKKKEEKPNGKIPDHDPAPNVTVLLREPVRAPAVAVAPTPVQPPIIVAPVATVPAMPQEKLASSPKDKKKKEKKVAKVEPAVSSVVNSIQVLTSKAAILETAPKEVPMVVVPPVGAKGNTPATGTTQGKKAEGTQNQSKKAEGAPNQGRKAEGTPNQGKKTEGTPNQGKKAEGTPNQGKKAEGTPNQGKKAEGAQNQGKKVDTTPNQGKKVEGAPTQGRKAEGAQNQAKKVEGAQNQGKKAEGAQNQGKKGEGAQNQGKKAEGAQNQGKKAEGAQNQGKKAEGAQNQGKKAEGAQNQGKKAEGAQNQGKKAEGAQNQGKKVEGAQNQGKKAEGAQNQGKKAEGAQNQGKKAEGAQNQGKKAEGAQNQGKKAEGAQNQGKKAEGAQNQGKKAEGAQNQGKKVEGAQNQGKKAEGAQNQGKKAEGAQNQGKKAEGAQNQGQKGEGAQNQGKKTEGAQGKKAERSPNQGKKGEGAPIQGKKADSVANQGTKVEGITNQGKKAEGSPSEGKKAEGSPNQGKKADAAANQGKKTESASVQGRNTDVAQSPEAPKQEAPAKKKSGSKKKGEPGPPDADGPLYLPYKTLVSTVGSMVFNEGEAQRLIEILSEKAGIIQDTWHKATQKGDPVAILKRQLEEKEKLLATEQEDAAVAKSKLRELNKEMAAEKAKAAAGEAKVKKQLVAREQEITAVQARMQASYREHVKEVQQLQGKIRTLQEQLENGPNTQLARLQQENSILRDALNQATSQVESKQNAELAKLRQELSKVSKELVEKSEAVRQDEQQRKALEAKAAAFEKQVLQLQASHRESEEALQKRLDEVSRELCHTQSSHASLRADAEKAQEQQQQMAELHSKLQSSEAEVRSKCEELSGLHGQLQEARAENSQLTERIRSIEALLEAGQARDAQDVQASQAEADQQQTRLKELESQVSGLEKEAIELREAVEQQKVKNNDLREKNWKAMEALATAEQACKEKLLSLTQAKEESEKQLCLIEAQTMEALLALLPELSVLAQQNYTEWLQDLKEKGPTLLKHPPAPAEPSSDLASKLREAEETQSTLQAECDQYRSILAETEGMLRDLQKSVEEEEQVWRAKVGAAEEELQKSRVTVKHLEEIVEKLKGELESSDQVREHTSHLEAELEKHMAAASAECQNYAKEVAGLRQLLLESQSQLDAAKSEAQKQSDELALVRQQLSEMKSHVEDGDIAGAPASSPEAPPAEQDPVQLKTQLEWTEAILEDEQTQRQKLTAEFEEAQTSACRLQEELEKLRTAGPLESSETEEASQLKERLEKEKKLTSDLGRAATRLQELLKTTQEQLAREKDTVKKLQEQLEKAEDGSSSKEGTSV [RRBP1]”, the “solubility in G1/S (log2)” value in the series with HeLa Kyoto [1] amounted to 0.0657. Moreover, the melting temperature in the series on HeLa Kyoto [2] (cell cycle stage: G1/S) was 53.2 °C; with HeLa Kyoto [2] (cell cycle stage: mitosis), 53.7 °C. The “solubility change mitosis (log2)” value in the series on HeLa Kyoto [3] came out at 0.448. Further, the values for the thermal stability score in the series on HeLa Kyoto [4] (setting [5]) and with HeLa Kyoto [4] (cell cycle stage: mitosis) were 2.64 and 7.14, respectively.
